Legend:
JM15attλ::cysE strains = experiment: Cysteine production in 1 L fermenter, chromosomally encoded cysE alleles; type: cell-based, E. coli; settings: single chromosomal copy
Experimental: For the purpose of being integrated into the chromosomal attachment site (attλ), the cysE alleles cysEIV, cysEX and cysEXI were cloned into the plasmid pRS551 (Simons et al., 1987, Gene 53: 85-96). For this, each cysE allele was amplified by PCR from the corresponding cysE plasmid. The oligonucleotides which were used, i.e. cysE-fwl and cysE-revl, are described in Example 1. The amplification was carried out as described in Example 3. The resulting fragments were cleaved with EcoRI/BamHI, purified through an agarose gel and ligated into vector pRS551 which had been cleaved with EcoRI and BamHI. This afforded the vector pRS551-based recombinant plasmids pRScysEIV, X and XI.
A heterogeneous lambda lysate, which contained recombinant cysE allele-carrying λRS45 derivatives in addition to λRS45 phages, was produced in vivo by homologous recombination by means of preparing a plate lysate on a pRScysE-carrying recA^+ strain (e.g. YMC9, ATCC 3397) using the λRS45 phage (Simons et al., 1987, Gene 53: 85-96).
The cysE strain JM15, which was infected with the heterogeneous lambda lysate and subsequently plated on kanamycin-containing (25 mg/L) LB plates, was used for selecting for the recombinant RS45 derivatives. The lysogenic, kanamycin-resistant clones which were obtained were then tested for their ability to grow on minimal medium plates without cysteine. A clone which was in each case cysteine-prototrophic was selected and used for preparing a homogeneous cysE λ lysate (by means of UV induction, Simons et al., 1987, Gene 53: 85-96).
The JM15 stain was infected with these homogeneous cysE λ lysates which were obtained in each case. The resulting JM15attλ::cysE strains were cultured as described in Example 6. Instead of tetracycline, the respective media in each case contained 25 mg of kanamycin per L as the selection agent.

serine acetyltransferase = experiment: Serine acetyltransferase enzyme activity test with and without L-cysteine (inhibitor constant Ki, specific activity); type: biochemical, E. coli; settings: for Ki: inhibitor L-cysteine
Source text: Any method which enables the activity of the serine acetyltransferase to be determined in the presence of cysteine can be used for determining the cysteine sensitivity of this enzyme. For example, the serine acetyltransferase activity can be determined using the method described by Kredich and Tomkins, J. Biol. Chem. 241: 4955-4965 (1966). In this test, the enzyme test mixture contains the substrate, L-serine, and the cofactor, acetyl-coenzyme A. The reaction is started by adding enzyme and monitored, in a spectro photometer, by observing the decrease in absorption at 232 nm which is elicited by the cleavage of the thioester bond in the acetyl-coenzyme A.
The above-described enzyme test is suitable for determining the cysteine sensitivity of any serine acetyltransferase enzyme, including the enzymes which have a modified carboxyl terminus. Inhibition of the serine acetyltransferase activity is tested in the presence of differing concentrations of L-cysteine in the reaction mixture. The catalytic activity of the different serine acetyltransferase enzymes is determined in the presence and absence of L-cysteine, and the inhibitor constant, Ki, is ascertained from this (Kredich and Tomkins, J. Biol. Chem., 241, 4955-4965 (1966)).
In order to investigate the biochemical basis of the cysteine secretion of the revertants, the activity of the serine acetyltransferase was determined in vitro, and the ability of cysteine to inhibit the enzyme was measured. For the determination, use was made of S30 extracts (cell homogenates centrifuged at 30,000 g and 4° C. for 20 minutes) of the selected revertants, the starting strains and the comparison strain, E. coli W3110 (ATTC 27325).
The biochemical parameters such as enzyme activity and inhibitor constant, Ki, were determined in an analogous manner to that described in Example 1.
The plasmids resulting from this cloning were designated pACYC184/cysE-Del in accordance with the extent of their deletion (cf. FIG. 9 for the plasmid map). Determination of the enzymic activity and the inhibitor constant, Ki, and also the cross-feeding test, were carried out in analogy with the description in Example 1. DNA sequence analysis was used to confirm that the deletions had been correctly introduced.
Determination of the enzymic activity and of the inhibitor constant Ki, and also the cross-feeding test, were carried out in analogy with the description in Example 1.

[1] = tested on: Corynebacterium glutamicum ATCC21851; experiment: Cysteine production by fermentation using corynebacteria with pWST1-cysE plasmids; type: cell-based; settings: allele on pWST1 plasmid; compared with cysEIV, cysEX, cysEXIV
Source text: The feedback-resistant cysE alleles, cysEIV, cysEX, cysEXI and cysEXIV (cf. Tab. 2 in Example 1), were cleaved out of their corresponding plasmids using the restriction enzymes BamHI and EcoRI (from Boehringer Mannheim) and each respective 1.15 kb-sized DNA fragment was purified through an agarose gel and isolated. The respective DNA fragment was rendered blunt-ended using the Klenow fragment of E. coli DNA polymerase I (from Boehringer Mannheim). The vector pWST1 was hydrolyzed with the restriction enzyme Smal (from Boehringer Mannheim) and ligated to the blunt-ended DNA fragment using T4 DNA ligase. The vector pWST1 is an E. coli/Corynebacterium shuttle vector and can replicate both in E. coli and in corynebacteria. The corynebacterial replicon of this vector originates from the Corynebacterium glutamicum strain ATCC 19223. The preparation of vector pWST1 is described in U.S. Pat. No. 4,965,197. The ligation mixture was used to transform the mutant JM15, which is auxotrophic for cysteine. The complementing plasmids were designated pWST1-cysEIV, pWST1-cysEX, pWST1-cysEXI and pWST1-cysEXIV in accordance with their inserted cysE alleles.
The pWST1-cysE plasmids were used to transform the Corynebacterium glutamicum ATCC21851. The transformation was carried out by electroporation using the technique described in detail in Liebl, W. et al., 1989, FEMS Microbiol. Letters, 65, 299-304. […]

B1: cysEXI: double mutant Thr167->Ala167, Gly245->Ser245 (protein, UniProt P0A9D4 1-273, looked up, variant T167A G245S)
Serine acetyltransferase: MSCEELEIVWNNIKAEARTLADCEPMLASFYHATLLKHENLGSALSYMLANKLSSPIMPAIAIREVVEEAYAADPEMIASAACDIQAVRTRDPAVDKYSTPLLYLKGFHALQAYRIGHWLWNQGRRALAIFLQNQVSVTFQVDIHPAAKIGRGIMLDHATGIVVGEAAVIENDVSILQSVTLGGTGKSGGDRHPKIREGVMIGAGAKILGNIEVGRGAKIGAGSVVLQPVPPHTTAAGVPARIVSKPDSDKPSMDMDQHFNGINHTFEYGDGI
**Q.** For B1, which yields of cysteine (JM15attλ::cysE strains) is on record?
**A.** 2.1 g/L

**Q.** And the Ki (serine acetyltransferase; Table 1a, 1 mM L-serine, 0.1 mM acetyl-CoA)?
**A.** 700 µM

**Q.** What about the spec. act. (serine acetyltransferase; Table 1a, serine acetyltransferase activity) of the same molecule?
**A.** 0.117 µmol/min/mg

**Q.** And the Ki (serine acetyltransferase; Table 2, alleles from chemical mutagenesis)?
**A.** 700 µM

**Q.** And the cysteine yields [1]?
**A.** highest cysteine yields
